Data: IntAct's records for PubMed 17954914

B1: Calcipressin-like protein (Saccharomyces cerevisiae), P36054 (parent)
chain: MGNIITDTIIITSDKCDIVDNDNVERIQVWLSKNILRKFQINENEPLQLIILKRFKRILLICPSHDISQHVMDASRALEMENFNFSYSLQDGQRNLTKQYLKVPESEKMFLISPPASPPPEFDFSKCEDAPQRHIQSHIQQDQQQRLEASQLLPNNPDKNNNGTFTLLKSKVGAITIDRCPTNDGNGQMQLADHVKTAFPPKSIFDTDDDD
partner: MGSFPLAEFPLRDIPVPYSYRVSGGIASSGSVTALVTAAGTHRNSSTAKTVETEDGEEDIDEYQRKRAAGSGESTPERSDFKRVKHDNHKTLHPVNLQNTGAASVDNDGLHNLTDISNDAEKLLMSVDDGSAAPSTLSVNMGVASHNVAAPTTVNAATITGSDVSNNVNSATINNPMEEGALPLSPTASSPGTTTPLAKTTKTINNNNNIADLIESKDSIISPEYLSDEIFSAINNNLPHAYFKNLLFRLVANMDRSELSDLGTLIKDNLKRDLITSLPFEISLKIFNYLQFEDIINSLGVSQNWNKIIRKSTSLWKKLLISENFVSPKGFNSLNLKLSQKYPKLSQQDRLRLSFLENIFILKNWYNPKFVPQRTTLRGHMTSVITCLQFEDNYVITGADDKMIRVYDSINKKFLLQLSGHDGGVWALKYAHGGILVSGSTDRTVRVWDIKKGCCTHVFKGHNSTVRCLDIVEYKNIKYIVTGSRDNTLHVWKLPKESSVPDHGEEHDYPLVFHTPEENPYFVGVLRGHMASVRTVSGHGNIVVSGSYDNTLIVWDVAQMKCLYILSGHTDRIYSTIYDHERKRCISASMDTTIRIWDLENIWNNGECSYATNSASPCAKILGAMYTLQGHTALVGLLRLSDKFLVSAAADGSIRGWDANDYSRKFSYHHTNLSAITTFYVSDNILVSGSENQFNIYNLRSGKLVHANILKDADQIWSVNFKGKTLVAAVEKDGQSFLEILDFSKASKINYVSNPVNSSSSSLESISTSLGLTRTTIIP

Variants of: B1
Details: with cdc4_yeast CDC4, P07834

Variant	effect of a mutation on the interaction
MGNIITDTIIITSDKCDIVDNDNVERIQVWLSKNILRKFQINENEPLQLIILKRFKRILLICPSHDISQHVMDASRALEMENFNFSYSLQDGQRNLTKQYLKVPESEKMFLIAPPASPPPEFDFSKCEDAPQRHIQSHIQQDQQQRLEASQLLPNNPDKNNNGTFTLLKSKVGAITIDRCPTNDGNGQMQLADHVKTAFPPKSIFDTDDDD [S113A]	disrupting interaction
MGNIITDTIIITSDKCDIVDNDNVERIQVWLSKNILRKFQINENEPLQLIILKRFKRILLICPSHDISQHVMDASRALEMENFNFSYSLQDGQRNLTKQYLKVPESEKMFLISPPAAPPPEFDFSKCEDAPQRHIQSHIQQDQQQRLEASQLLPNNPDKNNNGTFTLLKSKVGAITIDRCPTNDGNGQMQLADHVKTAFPPKSIFDTDDDD [S117A]	disrupting interaction
MGNIITDTIIITSDKCDIVDNDNVERIQVWLSKNILRKFQINENEPLQLIILKRFKRILLICPSHDISQHVMDASRALEMENFNFSYSLQDGQRNLTKQYLKVPESEKMFLIAPPAAPPPEFDFSKCEDAPQRHIQSHIQQDQQQRLEASQLLPNNPDKNNNGTFTLLKSKVGAITIDRCPTNDGNGQMQLADHVKTAFPPKSIFDTDDDD [S113A;S117A]	disrupting interaction strength
